Experiment [1] concerns the target PhaF phasin from Pseudomonas putida KT2440 (Pseudomonas putida KT2440). The experiment is described as follows: AUC; sedimentation equilibrium, short columns, 10000 and 16000 rpm, 20 mM sodium phosphate pH 7.0, 150 mM NaCl, 20 °C; single-species fit.
For experiment [2] the target is unchanged. The experiment is described as follows: AUC; sedimentation velocity; 38 µM PhaF (3.8 to 38 µM, data not shown) in 20 mM sodium phosphate pH 7.0, 150 mM NaCl, 48000 rpm, 20 °C; c(s) analysis.

By stoichiometry N is commonly meant the number of molecules, sites or subunits per partner or assembly.

In the case of “PhaF phasin from Pseudomonas putida KT2440 (natural protein)”, the stoichiometry N in experiment [1] and in experiment [2] was 4 in each case.
